From doi:10.1101/2020.11.24.393629 (bioRxiv, 2020)

Key:
SARS-CoV RBD = SARS-CoV RBD (SARS-CoV, GenBank NC_004718.3, UniProt P59594); test: BLI
[1] = target: T1, Recombinant RBD protein of SARS-CoV-2 with His tag (SARS-CoV-2, UniProt P0DTC2); test: ELISA
[2] = target: SARS-CoV-2 S on 293T cells expressing SARS-CoV-2 S (SARS-CoV-2-S cells) (SARS-CoV-2, UniProt P0DTC2); test: flow cytometry on cells
[3] = target: T1, Recombinant RBD protein of SARS-CoV-2 …; test: flow cytometry on cells

B1: HB27, humanized anti-SARS-CoV-2 monoclonal antibody (IgG) (antibody, V domains shown)
VH: VKLVESGGGLVKPGGSLRLSCAASGFTFTNYGMSWVRQAPGKRLEWVAEISSGGSYTYYPDTVTGRFTISRDNAKNTLYLQMNSLRAEDTAVYYCARFRYGGGGTVDYWGQGTLVTVSS
VL: IVLTQSPTLSLSPGERATLSCRASESVDNYGISFMNWFQQKPGQAPRLLIYAASNQGSGIPSRFSGSGSGTDFSLTISSLEPEDFAVYFCQQSKEVPRIFGQGTKVEIL
- binding result (SARS-CoV RBD): no binding
- EC50 [1]: 0.5 nM
- EC50 [2]: 5 to 50 nM
- EC50 [3]: 5 to 50 nM
